Assay results reported in US20160376555A1, “NOVEL METHODS TO REGENERATE HUMAN LIMBAL STEM CELLS” (The Regents of the University of California, priority 2012, published 2016).

Assays:
Wnt3a activities [1] = experiment: Wnt reporter gene assay; type: cell-based; conditions: Dkk2 at 125 nM
Text: As discussed above, Wnt/β-catenin and Notch pathways play pivotal roles in the fate determination decision between epidermal and corneal epithelial lineage in mice. In particular, Dkk2 is necessary for corneal development and activation of Notch1 is required to maintain the corneal lineage. Dkk2 alone or in combination with Notch1 activation may facilitate and increase the efficiency of the reprogramming process in humans. Functional recombinant Dkk2 protein can be provided by Dr. Jie Zheng (St. Jude Children's Research Hospital) (see, e.g. Lin et al., Proc Natl Acad Sci USA 2010; 107:4194-4199). It inhibits Wnt3a activities with an IC50 value around 8 nM in the Wnt reporter gene assay(see, e.g. Lujan et al., Proc Natl Acad Sci USA 2012; 109:2527-2532). Therefore, we can use the 3-step coculture protocol as described above and add Dkk2 to the culture medium at various concentrations starting at 8 nM to the Step 1 co-culture, which is the reprogramming step. Phenotypic analysis can be performed in each of the 3 steps to determine the outcome of transdifferentiation by the expression of K12 and K10 in the cultured epithelial cells. The optimal concentration of Dkk2 that achieves the highest portion of K12+ cells in Step 3 can be determined. This concentration of Dkk2 can be used. […]

Wnt3a activities [2] = conditions: functional recombinant Dkk2 protein; Wnt reporter gene assay; read-out: IC50, inhibition of Wnt3a activities; cited from earlier work

B1: Dkk2: Functional recombinant Dkk2 protein, a Wnt inhibitor (protein, UniProt Q9UBU2 34-259, looked up)
Dickkopf-related protein 2: KLNSIKSSLGGETPGQAANRSAGMYQGLAFGGSKKGKNLGQAYPCSSDKECEVGRYCHSPHQGSSACMVCRRKKKRCHRDGMCCPSTRCNNGICIPVTESILTPHIPALDGTRHRDRNHGHYSNHDLGWQNLGRPHTKMSHIKGHEGDPCLRSSDCIEGFCCARHFWTKICKPVLHQGEVCTKQRKKGSHGLEIFQRCDCAKGLSCKVWKDATYSSKARLHVCQKI
inhibition (Wnt3a activities [1]): 90% | IC50 (Wnt3a activities [2]): ~8 nM
